Data on 6 molecules can be found in PMC12723162, “Alphaherpesvirus pUL21 homologs use non-canonical sequences to compete with cellular adaptors for protein phosphatase 1 binding” (The Journal of Biological Chemistry, 2025).

The assay has as its system endogenous PP1α. Put plainly: GFP affinity capture / co-IP of endogenous PP1α with GFP-tagged bait. The assay is classed as binding, human. To be noted: HEK 293T cells, 24 h post-transfection, GFP-Trap, immunoblot, representative of two independent experiments. The source says: Bacterial expression plasmids encoding the mouse PP1γ catalytic domain (residues 7–300)-H6 and pUL21-H6, and mammalian expression vectors encoding pUL21(FV242AA)-GFP, pORF38-GFP and pORF38(FV255AA)-GFP, were described previously ([23]). We note that the mouse and human PP1γ catalytic domains share 100% amino acid identity. pORF38-NLT-H6 was generated by sub-cloning residues 1 to 263 of ORF38 into the vector pOPTnH ([52]). pUL21-RVxF-H6 was generated by inserting the mutations A237V and V239F into pUL21-H6 by QuikChange site-directed mutagenesis. Human PP1α was cloned from HeLa cell cDNA into a vector derived from pF5K (Promega) with an N-terminal Myc epitope tag via restriction-based cloning, and point mutations were introduced into Myc-PP1α by QuikChange mutagenesis. A plasmid encoding pUL21-GFP was generated by sub-cloning a codon-optimized synthetic UL21 gene (GeneArt) into pEGFP-N1 (Clontech), yielding an identical pUL21-GFP amino acid sequence as used in ([23]). pUL21-ΔL, -ΔR and -ΔLR were generated from this vector via inverse PCR, and point mutations were introduced via QuikChange mutagenesis.
Mycoplasma-free human embryonic kidney 293T (HEK 293T) cells (American Type Culture Collection #CRL-3216) were maintained in Dulbecco’s modified Eagle’s medium (DMEM) with high glucose (Merck), supplemented with 10% (v/v) heat-inactivated fetal calf serum and 2 mM L-glutamine (complete DMEM) in a humidified 5% CO2 atmosphere at 37 °C. The identity of the cell line was not independently confirmed.
Monolayers of HEK 293T cells were transfected with 7.7 μg of DNA per 9 cm dish, using 18 μg/ml 25 kDa branched polyethylenimine (Merck) or using TransIt-LT1 (Mirus) in accordance with the manufacturer’s instructions. Cells were harvested 24 h post-transfection and incubated for 30 min in ice-cold 10 mM Tris pH 7.5, 150 mM NaCl, 0.5 mM EDTA, 0.5% Igepal CA-630 (a.k.a. NP-40), 1% (v/v) EDTA-free protease inhibitor cocktail (Merck) before clarification at 21,000×g for 10 min at 4 °C. Lysate protein concentrations were measured using the bicinchoninic acid (BCA) assay (Pierce) and normalized before affinity capture using GFP-Trap resin (ChromoTek) following the manufacturer’s protocol. Samples were eluted by heating the resin to 95 °C for 5 min in 45 μl 2 × SDS-PAGE loading buffer. Proteins were separated by SDS-PAGE and transferred to 0.45 μm nitrocellulose membranes (PerkinElmer or Cytiva). Membranes were stained with Ponceau S and imaged using a G:Box XX9 (Syngene) before blocking in Tris-buffered saline with 0.1% TWEEN-20 (TBS-T) supplemented with 5% (w/v) non-fat milk powder. Immunoblotting was performed using antibodies diluted in blocking buffer as listed below, and immunoblots were imaged using an Odyssey CLx (LI-COR Biosciences). Densitometry was performed using Image Studio Lite version 5.2 (LI-COR Biosciences), and statistical tests were performed using Prism version 7 (GraphPad).
The following primary antibodies and dilutions were used for immunoblotting: rabbit anti-CERT 1:10,000 (Abcam #Ab72536), mouse anti-PP1α 1:1000 (Santa Cruz #sc-271762), mouse anti-Myc 1:4000 (Millipore #05–724), rat anti-tubulin (clone YL1/2) hybridoma supernatant 1:40 ([54]). The anti-CERT antibody was validated using a knock-out cell line. The anti-PP1α antibody has been validated by siRNA knockdown ([55]). The anti-Myc antibody was validated using control experiments lacking Myc-tagged transfected constructs ([56]). The anti-tubulin antibody has been validated by immunofluorescence microscopy, immuno-electron microscopy and radiolabeled immunosorbent assay ([54]). Secondary antibodies from LI-COR Biosciences were diluted 1:10,000 as follows: IRDye 680RD goat anti-rat (#926–68029) and goat anti-mouse (#926–68020), or IRDye 800CW goat anti-rabbit (#926–32221).

B1: pORF38-GFP (protein)
chain: MEFPYHSTVSYNGVTFYFNERATRAYFICGGCLISIPRKHGGEIAKFGHVVRGVGPGDRSVASYVRSELNRTGKTWAVSSNNNCVFLDRVALLAAGSGAVDRDLCGTFDVEVEDPTLADYLVSLPVTHLTLVAGVDVTRENKLKLFPTPTAINTTNGFMYVPNEASFSLVYMRMLELPESLQELVSGLFDGTPEIRDALNGSNDDEKTSIIVSRRAADVVTEDVKADDVPISGEPYSEKQPRRRKKSDHITLSNFVQIRTIPRVMDIWDPRHKATTHCIRALSCAVFFADEVIFKARKWPGLEDELNEARETIYTAVVAVYGERGELPFFGHAYGRDLTSCQRFVIVQYILSRWEAFNCYAVIEDLTRSYVNALPSDDDTDQVAQDLIRTIVDTANSLLREVGFIGTLAETLLFLPLPQLPCYKETSHLAKKEGVRILRLAKTGVGLSDTVPVDVSVTERHEYEISRYLDTLYSGDPCYNGAVRLCRLLGSSIPIALYYNTISGNAFEPYFAGRRYIAYLGALFFGRVHQTPFGDGKKTQR
modifications: left off: GFP, end not stated, kept
As for B1, the “Co-IP of endogenous PP1α” value is “consistently co-immunoprecipitated more efficiently by pORF38-GFP than by pUL21-GFP”. For the same molecule, the “Co-IP of endogenous PP1α” value (listed as pORF38) was “efficiently precipitate endogenous PP1α”.

B2: pORF38-FV255AA (protein)
chain: MEFPYHSTVSYNGVTFYFNERATRAYFICGGCLISIPRKHGGEIAKFGHVVRGVGPGDRSVASYVRSELNRTGKTWAVSSNNNCVFLDRVALLAAGSGAVDRDLCGTFDVEVEDPTLADYLVSLPVTHLTLVAGVDVTRENKLKLFPTPTAINTTNGFMYVPNEASFSLVYMRMLELPESLQELVSGLFDGTPEIRDALNGSNDDEKTSIIVSRRAADVVTEDVKADDVPISGEPYSEKQPRRRKKSDHITLSNAAQIRTIPRVMDIWDPRHKATTHCIRALSCAVFFADEVIFKARKWPGLEDELNEARETIYTAVVAVYGERGELPFFGHAYGRDLTSCQRFVIVQYILSRWEAFNCYAVIEDLTRSYVNALPSDDDTDQVAQDLIRTIVDTANSLLREVGFIGTLAETLLFLPLPQLPCYKETSHLAKKEGVRILRLAKTGVGLSDTVPVDVSVTERHEYEISRYLDTLYSGDPCYNGAVRLCRLLGSSIPIALYYNTISGNAFEPYFAGRRYIAYLGALFFGRVHQTPFGDGKKTQR
modifications: left off: GFP, end not stated, kept
Consider B2, for which the “Co-IP of endogenous PP1α” value is reported as “the interaction is disrupted by mutation of the TROPPO motif”. Besides, the “Co-IP of endogenous PP1α” value (listed as FV255AA) is given as “abolished binding to PP1”.

B3: pUL21ΔLR (protein)
chain: MELSYATTMHYRDVVFYVTTDRNRAYFVCGGCVYSVGRPCASQPGEIAKFGLVVRGTGPDDRVVANYVRSELRQRGLQDVRPIGEDEVFLDSVCLLNPNVSSELDVINTNDVEVLDECLAEYCTSLRTSPGVLISGLRVRAQDRIIELFEHPTIVNVSSHFVYTPSPYVFALAQAHLPRLPSSLEALVSGLFDGIPAPRQPLDAHNPRTDVVITGTVSEFVQVKHIDRVGPAGVSAPPGPTLRELWWVFYAADRALEEPRADSGLTREEVRAVRGFREQAWKLFGSAGAPRAFIGAALGLSPLQKLAVYYYIIHRERRLSPFPALVRLVGRYTQRHGLYVPRPDDPVLADAINGLFRDALAAGTTAEQLLMFDLLPPKDVPVGSDVQADSTALLRFIESQRLAVPGGVISPEHVAYLGAFLSVLYAGRGRMSAATHTARLTGVTSLVLAVGDVDRLSAFDRGAAGAASRTRAAGYLDVLLTVRLARSQHGQSV
modifications: left off: GFP (from the vector pEGFP-N1), end not stated, kept
With B3, the “Co-IP of endogenous PP1α” value is listed as “completely abolishes PP1α binding”.

B4: pUL21ΔR (protein)
chain: MELSYATTMHYRDVVFYVTTDRNRAYFVCGGCVYSVGRPCASQPGEIAKFGLVVRGTGPDDRVVANYVRSELRQRGLQDVRPIGEDEVFLDSVCLLNPNVSSELDVINTNDVEVLDECLAEYCTSLRTSPGVLISGLRVRAQDRIIELFEHPTIVNVSSHFVYTPSPYVFALAQAHLPRLPSSLEALVSGLFDGIPAPRQPLDAHNPRTDVVITGRRAPRPIAGSGAGSGGAGAKRATVSEFVQVKHIDRVGPAGVSAPPGPTLRELWWVFYAADRALEEPRADSGLTREEVRAVRGFREQAWKLFGSAGAPRAFIGAALGLSPLQKLAVYYYIIHRERRLSPFPALVRLVGRYTQRHGLYVPRPDDPVLADAINGLFRDALAAGTTAEQLLMFDLLPPKDVPVGSDVQADSTALLRFIESQRLAVPGGVISPEHVAYLGAFLSVLYAGRGRMSAATHTARLTGVTSLVLAVGDVDRLSAFDRGAAGAASRTRAAGYLDVLLTVRLARSQHGQSV
modifications: left off: GFP (from the vector pEGFP-N1), end not stated, kept
On to B4, for which the “Co-IP of endogenous PP1α” value is reported as “binding is retained”.

B5: pUL21-FV242AA (protein)
chain: MELSYATTMHYRDVVFYVTTDRNRAYFVCGGCVYSVGRPCASQPGEIAKFGLVVRGTGPDDRVVANYVRSELRQRGLQDVRPIGEDEVFLDSVCLLNPNVSSELDVINTNDVEVLDECLAEYCTSLRTSPGVLISGLRVRAQDRIIELFEHPTIVNVSSHFVYTPSPYVFALAQAHLPRLPSSLEALVSGLFDGIPAPRQPLDAHNPRTDVVITGRRAPRPIAGSGAGSGGAGAKRATVSEAAQVKHIDRVGPAGVSPAPPPNNTDSSSLVPGAQDSAPPGPTLRELWWVFYAADRALEEPRADSGLTREEVRAVRGFREQAWKLFGSAGAPRAFIGAALGLSPLQKLAVYYYIIHRERRLSPFPALVRLVGRYTQRHGLYVPRPDDPVLADAINGLFRDALAAGTTAEQLLMFDLLPPKDVPVGSDVQADSTALLRFIESQRLAVPGGVISPEHVAYLGAFLSVLYAGRGRMSAATHTARLTGVTSLVLAVGDVDRLSAFDRGAAGAASRTRAAGYLDVLLTVRLARSQHGQSV
modifications: left off: GFP, end not stated, kept
In the case of B5, the “Co-IP of endogenous PP1α” value was “the interaction is disrupted by mutation of the TROPPO motif”. The “Co-IP of endogenous PP1α” value (listed as FV242AA) is “PP1α coIP was abolished”.

B6: pUL21ΔL (protein)
chain: MELSYATTMHYRDVVFYVTTDRNRAYFVCGGCVYSVGRPCASQPGEIAKFGLVVRGTGPDDRVVANYVRSELRQRGLQDVRPIGEDEVFLDSVCLLNPNVSSELDVINTNDVEVLDECLAEYCTSLRTSPGVLISGLRVRAQDRIIELFEHPTIVNVSSHFVYTPSPYVFALAQAHLPRLPSSLEALVSGLFDGIPAPRQPLDAHNPRTDVVITGTVSEFVQVKHIDRVGPAGVSPAPPPNNTDSSSLVPGAQDSAPPGPTLRELWWVFYAADRALEEPRADSGLTREEVRAVRGFREQAWKLFGSAGAPRAFIGAALGLSPLQKLAVYYYIIHRERRLSPFPALVRLVGRYTQRHGLYVPRPDDPVLADAINGLFRDALAAGTTAEQLLMFDLLPPKDVPVGSDVQADSTALLRFIESQRLAVPGGVISPEHVAYLGAFLSVLYAGRGRMSAATHTARLTGVTSLVLAVGDVDRLSAFDRGAAGAASRTRAAGYLDVLLTVRLARSQHGQSV
modifications: left off: GFP (from the vector pEGFP-N1), end not stated, kept
As for B6, the “Co-IP of endogenous PP1α” value is “completely abolishes PP1α binding”.
